Measured values taken from patent US20220042033A1, “COMPOSITION AND METHOD FOR CONFERRING AND/OR ENHANCING TOLERANCE AGAINST HERBICIDES BY USING VARIANTS OF PPO” (FarmHannong Co., Ltd., priority 2017, published 2022).

Tests used:
MxPPO [1] = assay: Herbicide tolerance test of MxPPO wild type and variants in PPO-deficient E. coli BT3(ΔPPO), growth on herbicide-containing LB agar; format: cell-based, Myxococcus xanthus; conditions: relative to MxPPO WT, light; for Herbicide tolerance, flumioxazin: up to 400 μM (FIGS. 15-17); for Herbicide tolerance, sulfentrazone: up to 1000 μM (FIGS. 18-20); for Herbicide tolerance, tiafenacil: 2000 μM (FIG. 14)
Method: Then, the extent of tolerance was evaluated.

MxPPO [2] = assay: PPO enzyme activity of purified MBP-fused MxPPO wild type and variants; format: biochemical, Myxococcus xanthus; conditions: PPO enzyme activity of purified MxPPO protein, relative to wild type
Method: Thus, PPO proteins of wild type and variants were expressed as fused to MBP and were used for experiments.
The following process for purification of PPO protein was performed in a 4° C. cold room. […] The column was washed with 3 column volumes of buffer and the presence of protein in the washing solution was examined. When the protein was no longer detected, the washing procedure was terminated. Then, the MBP-PPO protein was eluted with approximately 2 column volumes of buffer containing 20 mM maltose. The protein concentration of each eluent was determined and the elution was stopped when the protein was no longer detected. Ten microliter of each fraction was investigated for protein quantification and SDS-PAGE analysis. The highly pure fractions of PPO protein variants were used for the enzyme assay.
Since protoporphyrinogen IX, a substrate of PPO protein, was not commercially available, it was chemically synthesized in the laboratory. Overall process was performed in dark under nitrogen stream. […] of protoporphyrin IX was dissolved in 20 ml of 20% (v/v) EtOH, and stirred under dark condition for 30 minutes. The obtained protoporphyrin IX solution was put into a 15 ml screw tube in an amount of 800 μl, and flushed with nitrogen gas for 5 minutes. To this, 1.5 g of sodium amalgam was added and vigorously shaken for 2 minutes. The lid was opened to exhaust hydrogen gas in the tube. Thereafter, the lid was closed and incubated for 3 minutes. The protoporphyrinogen IX solution was filtered using syringe and cellulose membrane filter. To 600 μl of the obtained protoporphyrinogen IX solution, approximately 300 μl of 2M MOPS [3-(N-morpholino) propanesulfonic acid] was added to adjust pH to 8.0. To determine the enzyme activity of PPO protein, a reaction mixture was prepared with the following composition (based on 10 ml): 50 mM Tris-Cl (pH 8.0); 50 mM NaCl; 0.04% (v/v) Tween 20; 40 mM glucose (0.072 g); 5 units glucose oxidase (16.6 mg); and 10 units catalase (1 μl).
Hundred and eighty microliters of a reaction mixture […] were placed in 96 well plates and 20 μl of purified PPO proteins were added. After 50 μl of the mineral oil was layered, the reaction was initiated by adding the substrate, protoporphyrinogen IX solution, to a final concentration of 50 μM. The reaction proceeded at room temperature for 30 min and the fluorescence of protoporphyrin IX was measured using Microplate reader (Sense, Hidex) (excitation: 405 nm; emission: 633 nm). To calculate the PPO enzyme activity, the protoporphyrinogen IX solution was kept open in the air overnight to oxidize the solution. To this, 2.7 N HCl was added, and the absorbance at 408 nm was measured. A standard curve was generated using standard protoporphyrin IX, and PPO activity was measured by calibration of protoporphyrin IX using the standard curve of protoporphyrin IX.
Activities of variants were presented relatively compared to that of wild type.

B1: R95A + I311M + M365V: MxPPO (SEQ ID NO: 3) variant (protein)
chain: MHHMPRTTGMNVAVVGGGISGLAVAHHLRSRGTDAVLLESSARLGGAVGTHALAGYLVEQGPNSFLDREPATRALAAALNLEGRIRAADPAAKRAYVYTRGRLRSVPASPPAFLASDILPLGARLRVAGELFSRRAPEGVDESLAAFGRRHLGHRATQVLLDAVQTGIYAGDVEQLSVAATFPMLVKMEREHRSLILGAIRAQKAQRQAALPAGTAPKLSGALSTFDGGLQVLIDALAASLGDAAHVGARVEGLAREDGGWRLIIEEHGRRAELSVAQVVLAAPAHATAKLLRPLDDALAALVAGIAYAPMAVVHLGFDAGTLPAPDGFGFLVPAEEQRRMLGAIHASTTFPFRAEGGRVLYSCVVGGARQPGLVEQDEDALAALAREELKALAGVTARPSFTRVFRWPLGIPQYNLGHLERVAAIDAALQRLPGLHLIGNAYKGVGLNDCIRNAAQLADALVAGNTSHAP
modifications: Synthetic (Protoporphyrinogen IX oxidase (MxPPO) of Myxococcus xanthus)
MxPPO [1]
  Herbicide tolerance, flumioxazin: ++ (10-99 fold higher tolerance)
  Herbicide tolerance, sulfentrazone: + (1-9 fold higher tolerance)
MxPPO [2]
  Activity (%): 37%

B2: I168C + L332T + M365V: MxPPO (SEQ ID NO: 3) variant (protein)
chain: MHHMPRTTGMNVAVVGGGISGLAVAHHLRSRGTDAVLLESSARLGGAVGTHALAGYLVEQGPNSFLDREPATRALAAALNLEGRIRAADPAAKRRYVYTRGRLRSVPASPPAFLASDILPLGARLRVAGELFSRRAPEGVDESLAAFGRRHLGHRATQVLLDAVQTGCYAGDVEQLSVAATFPMLVKMEREHRSLILGAIRAQKAQRQAALPAGTAPKLSGALSTFDGGLQVLIDALAASLGDAAHVGARVEGLAREDGGWRLIIEEHGRRAELSVAQVVLAAPAHATAKLLRPLDDALAALVAGIAYAPIAVVHLGFDAGTLPAPDGFGFTVPAEEQRRMLGAIHASTTFPFRAEGGRVLYSCVVGGARQPGLVEQDEDALAALAREELKALAGVTARPSFTRVFRWPLGIPQYNLGHLERVAAIDAALQRLPGLHLIGNAYKGVGLNDCIRNAAQLADALVAGNTSHAP
modifications: Synthetic (Protoporphyrinogen IX oxidase (MxPPO) of Myxococcus xanthus)
MxPPO [1]
  Herbicide tolerance, tiafenacil: + (1-9 fold higher tolerance)
  Herbicide tolerance, flumioxazin: +++ (100-999 fold higher tolerance)
  Herbicide tolerance, sulfentrazone: ++ (10-99 fold higher tolerance)
MxPPO [2]
  Activity (%): 49%

B3: R95A + L332T + M365I: MxPPO (SEQ ID NO: 3) variant (protein)
chain: MHHMPRTTGMNVAVVGGGISGLAVAHHLRSRGTDAVLLESSARLGGAVGTHALAGYLVEQGPNSFLDREPATRALAAALNLEGRIRAADPAAKRAYVYTRGRLRSVPASPPAFLASDILPLGARLRVAGELFSRRAPEGVDESLAAFGRRHLGHRATQVLLDAVQTGIYAGDVEQLSVAATFPMLVKMEREHRSLILGAIRAQKAQRQAALPAGTAPKLSGALSTFDGGLQVLIDALAASLGDAAHVGARVEGLAREDGGWRLIIEEHGRRAELSVAQVVLAAPAHATAKLLRPLDDALAALVAGIAYAPIAVVHLGFDAGTLPAPDGFGFTVPAEEQRRMLGAIHASTTFPFRAEGGRVLYSCIVGGARQPGLVEQDEDALAALAREELKALAGVTARPSFTRVFRWPLGIPQYNLGHLERVAAIDAALQRLPGLHLIGNAYKGVGLNDCIRNAAQLADALVAGNTSHAP
modifications: Synthetic (Protoporphyrinogen IX oxidase (MxPPO) of Myxococcus xanthus)
MxPPO [1]
  Herbicide tolerance, flumioxazin: + (1-9 fold higher tolerance)
  Herbicide tolerance, sulfentrazone: + (1-9 fold higher tolerance)
MxPPO [2]
  Activity (%): 38%

B4: A170C + I311M + M365I: MxPPO (SEQ ID NO: 3) variant (protein)
chain: MHHMPRTTGMNVAVVGGGISGLAVAHHLRSRGTDAVLLESSARLGGAVGTHALAGYLVEQGPNSFLDREPATRALAAALNLEGRIRAADPAAKRRYVYTRGRLRSVPASPPAFLASDILPLGARLRVAGELFSRRAPEGVDESLAAFGRRHLGHRATQVLLDAVQTGIYCGDVEQLSVAATFPMLVKMEREHRSLILGAIRAQKAQRQAALPAGTAPKLSGALSTFDGGLQVLIDALAASLGDAAHVGARVEGLAREDGGWRLIIEEHGRRAELSVAQVVLAAPAHATAKLLRPLDDALAALVAGIAYAPMAVVHLGFDAGTLPAPDGFGFLVPAEEQRRMLGAIHASTTFPFRAEGGRVLYSCIVGGARQPGLVEQDEDALAALAREELKALAGVTARPSFTRVFRWPLGIPQYNLGHLERVAAIDAALQRLPGLHLIGNAYKGVGLNDCIRNAAQLADALVAGNTSHAP
modifications: Synthetic (Protoporphyrinogen IX oxidase (MxPPO) of Myxococcus xanthus)
MxPPO [1]
  Herbicide tolerance, flumioxazin: ++ (10-99 fold higher tolerance)
  Herbicide tolerance, sulfentrazone: + (1-9 fold higher tolerance)
MxPPO [2]
  Activity (%): 69%

B5: I168C + I311M + M365I: MxPPO (SEQ ID NO: 3) variant (protein)
chain: MHHMPRTTGMNVAVVGGGISGLAVAHHLRSRGTDAVLLESSARLGGAVGTHALAGYLVEQGPNSFLDREPATRALAAALNLEGRIRAADPAAKRRYVYTRGRLRSVPASPPAFLASDILPLGARLRVAGELFSRRAPEGVDESLAAFGRRHLGHRATQVLLDAVQTGCYAGDVEQLSVAATFPMLVKMEREHRSLILGAIRAQKAQRQAALPAGTAPKLSGALSTFDGGLQVLIDALAASLGDAAHVGARVEGLAREDGGWRLIIEEHGRRAELSVAQVVLAAPAHATAKLLRPLDDALAALVAGIAYAPMAVVHLGFDAGTLPAPDGFGFLVPAEEQRRMLGAIHASTTFPFRAEGGRVLYSCIVGGARQPGLVEQDEDALAALAREELKALAGVTARPSFTRVFRWPLGIPQYNLGHLERVAAIDAALQRLPGLHLIGNAYKGVGLNDCIRNAAQLADALVAGNTSHAP
modifications: Synthetic (Protoporphyrinogen IX oxidase (MxPPO) of Myxococcus xanthus)
MxPPO [1]
  Herbicide tolerance, tiafenacil: + (1-9 fold higher tolerance)
  Herbicide tolerance, flumioxazin: ++ (10-99 fold higher tolerance)
  Herbicide tolerance, sulfentrazone: + (1-9 fold higher tolerance)
MxPPO [2]
  Activity (%): 47%

B6: I168C + A170C + M365V: MxPPO (SEQ ID NO: 3) variant (protein)
chain: MHHMPRTTGMNVAVVGGGISGLAVAHHLRSRGTDAVLLESSARLGGAVGTHALAGYLVEQGPNSFLDREPATRALAAALNLEGRIRAADPAAKRRYVYTRGRLRSVPASPPAFLASDILPLGARLRVAGELFSRRAPEGVDESLAAFGRRHLGHRATQVLLDAVQTGCYCGDVEQLSVAATFPMLVKMEREHRSLILGAIRAQKAQRQAALPAGTAPKLSGALSTFDGGLQVLIDALAASLGDAAHVGARVEGLAREDGGWRLIIEEHGRRAELSVAQVVLAAPAHATAKLLRPLDDALAALVAGIAYAPIAVVHLGFDAGTLPAPDGFGFLVPAEEQRRMLGAIHASTTFPFRAEGGRVLYSCVVGGARQPGLVEQDEDALAALAREELKALAGVTARPSFTRVFRWPLGIPQYNLGHLERVAAIDAALQRLPGLHLIGNAYKGVGLNDCIRNAAQLADALVAGNTSHAP
modifications: Synthetic (Protoporphyrinogen IX oxidase (MxPPO) of Myxococcus xanthus)
MxPPO [1]
  Herbicide tolerance, flumioxazin: ++ (10-99 fold higher tolerance)
  Herbicide tolerance, sulfentrazone: ++ (10-99 fold higher tolerance)
MxPPO [2]
  Activity (%): 45%
